The results in this text go back to IntAct's records for PubMed 31515488.

B1: Fanconi anemia group G protein (Homo sapiens), O15287 (parent)
chain: MSRQTTSVGSSCLDLWREKNDRLVRQAKVAQNSGLTLRRQQLAQDALEGLRGLLHSLQGLPAAVPVLPLELTVTCNFIILRASLAQGFTEDQAQDIQRSLERVLETQEQQGPRLEQGLRELWDSVLRASCLLPELLSALHRLVGLQAALWLSADRLGDLALLLETLNGSQSGASKDLLLLLKTWSPPAEELDAPLTLQDAQGLKDVLLTAFAYRQGLQELITGNPDKALSSLHEAASGLCPRPVLVQVYTALGSCHRKMGNPQRALLYLVAALKEGSAWGPPLLEASRLYQQLGDTTAELESLELLVEALNVPCSSKAPQFLIEVELLLPPPDLASPLHCGTQSQTKHILASRCLQTGRAGDAAEHYLDLLALLLDSSEPRFSPPPSPPGPCMPEVFLEAAVALIQAGRAQDALTLCEELLSRTSSLLPKMSRLWEDARKGTKELPYCPLWVSATHLLQGQAWVQLGAQKVAISEFSRCLELLFRATPEEKEQGAAFNCEQGCKSDAALQQLRAAALISRGLEWVASGQDTKALQDFLLSVQMCPGNRDTYFHLLQTLKRLDRRDEATALWWRLEAQTKGSHEDALWSLPLYLESYLSWIRPSDRDAFLEEFRTSLPKSCDL
partner: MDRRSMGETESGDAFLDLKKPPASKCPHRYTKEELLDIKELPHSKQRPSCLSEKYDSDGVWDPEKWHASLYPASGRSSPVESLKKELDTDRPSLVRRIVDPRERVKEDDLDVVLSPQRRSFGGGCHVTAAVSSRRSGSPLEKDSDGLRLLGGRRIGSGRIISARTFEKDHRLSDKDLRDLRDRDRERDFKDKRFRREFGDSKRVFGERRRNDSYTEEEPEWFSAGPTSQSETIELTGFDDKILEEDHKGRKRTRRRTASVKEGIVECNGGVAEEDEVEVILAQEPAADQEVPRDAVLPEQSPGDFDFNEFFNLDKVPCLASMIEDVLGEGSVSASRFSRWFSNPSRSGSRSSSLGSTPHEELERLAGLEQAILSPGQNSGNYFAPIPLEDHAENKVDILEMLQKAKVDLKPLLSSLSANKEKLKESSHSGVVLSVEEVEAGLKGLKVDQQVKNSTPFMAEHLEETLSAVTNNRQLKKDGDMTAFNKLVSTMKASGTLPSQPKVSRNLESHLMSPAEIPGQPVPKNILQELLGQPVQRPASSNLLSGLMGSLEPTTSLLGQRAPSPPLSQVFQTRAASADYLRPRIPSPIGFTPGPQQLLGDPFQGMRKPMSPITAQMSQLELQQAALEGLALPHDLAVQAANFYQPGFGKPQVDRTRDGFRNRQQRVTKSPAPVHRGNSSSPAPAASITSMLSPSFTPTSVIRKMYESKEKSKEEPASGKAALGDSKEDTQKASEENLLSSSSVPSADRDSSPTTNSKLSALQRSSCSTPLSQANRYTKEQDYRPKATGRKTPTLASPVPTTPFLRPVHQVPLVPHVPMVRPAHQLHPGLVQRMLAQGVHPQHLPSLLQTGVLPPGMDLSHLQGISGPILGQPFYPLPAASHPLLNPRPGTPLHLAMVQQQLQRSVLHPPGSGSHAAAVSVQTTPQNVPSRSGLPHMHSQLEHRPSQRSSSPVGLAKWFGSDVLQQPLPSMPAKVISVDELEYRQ
B2: Protein boule-like (Homo sapiens), Q8N9W6 (parent)
chain: MQTDSLSPSPNPVSPVPLNNPTSAPRYGTVIPNRIFVGGIDFKTNESDLRKFFSQYGSVKEVKIVNDRAGVSKGYGFVTFETQEDAQKILQEAEKLNYKDKKLNIGPAIRKQQVGIPRSSIMPAAGTMYLTTSTGYPYTYHNGVAYFHTPEVTSVPPPWPSRSVCSSPVMVAQPIYQQPAYHYQATTQYLPGQWQWSVPQPSASSAPFLYLQPSEVIYQPVEIAQDGGCVPPPLSLMETSVPEPYSDHGVQATYHQVYAPSAITMPAPVMQPEPIKTVWSIHY
partner: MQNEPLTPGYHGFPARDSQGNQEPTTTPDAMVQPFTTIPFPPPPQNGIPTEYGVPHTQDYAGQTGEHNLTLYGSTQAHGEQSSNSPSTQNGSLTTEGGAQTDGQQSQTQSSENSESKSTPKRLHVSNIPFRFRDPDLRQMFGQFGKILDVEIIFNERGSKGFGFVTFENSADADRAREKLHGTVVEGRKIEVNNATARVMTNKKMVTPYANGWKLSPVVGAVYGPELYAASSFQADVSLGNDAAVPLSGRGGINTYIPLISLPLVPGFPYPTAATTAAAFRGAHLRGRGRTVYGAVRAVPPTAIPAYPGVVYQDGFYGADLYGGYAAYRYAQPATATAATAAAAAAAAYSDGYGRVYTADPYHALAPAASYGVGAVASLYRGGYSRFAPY
B3: E3 ubiquitin-protein ligase RNF8 (Homo sapiens), O76064 (parent)
chain: MGEPGFFVTGDRAGGRSWCLRRVGMSAGWLLLEDGCEVTVGRGFGVTYQLVSKICPLMISRNHCVLKQNPEGQWTIMDNKSLNGVWLNRARLEPLRVYSIHQGDYIQLGVPLENKENAEYEYEVTEEDWETIYPCLSPKNDQMIEKNKELRTKRKFSLDELAGPGAEGPSNLKSKINKVSCESGQPVKSQGKGEVASTPSDNLDPKLTALEPSKTTGAPIYPGFPKVTEVHHEQKASNSSASQRSLQMFKVTMSRILRLKIQMQEKHEAVMNVKKQTQKGNSKKVVQMEQELQDLQSQLCAEQAQQQARVEQLEKTFQEEEQHLQGLEIAQGEKDLKQQLAQALQEHWALMEELNRSKKDFEAIIQAKNKELEQTKEEKEKMQAQKEEVLSHMNDVLENELQCIICSEYFIEAVTLNCAHSFCSYCINEWMKRKIECPICRKDIKSKTYSLVLDNCINKMVNNLSSEVKERRIVLIRERKAKRLF
B4: Beta-taxilin (Homo sapiens), Q8N3L3 (parent)
chain: MEANHSEQLSAERQSTPPGDSSSLPSHNGLEKEDGQDSPTPVQPPEKEASVHPDISEELNRQLEDIINTYGSAASTAGKEGSARASEQPENAESPDNEDGDCEETTEEAGREPVASGEPPTVKEPVSNKEQKLEKKILKGLGKEANLLMQNLNKLQTPEEKFDFLFKKYAELLDEHRTEQKKLKLLQKKQVQIQKEKDQLQGEHSRAILARSKLESLCRELQRHNKTLKEEALQRAREEEEKRKEITSHFQSTLTDIQGQIEQQSERNMKLCQENTELAEKLKSIIDQYELREEHLDKIFKHRELQQKLVDAKLEQAQEMMKEAEERHKREKEYLLNQAAEWKLQAKVLKEQETVLQAQLTLYSGRFEEFQSTLTKSNEVFATFKQEMDKTTKKMKKLEKDTATWKARFENCNKALLDMIEEKALRAKEYECFVMKIGRLENLCRALQEERNELHKKIRDAEISEKDDQSQHNSDEEPESNVSVDQEIDAEEVNSVQTAVKNLATAFMIIHHPESTPHQSKETQPEIGSSQESADAALKEPEQPPLIPSRDSESPLPPLTPQAEAEGGSDAEPPSKASNSPAGLGAETQCEGLPVGAQADQASWKPEAEASGQAPQAPTEASLQKMEADVPAPACAAEEHVAAMVPACEPSRQPPRAAAEELPVGASAGPQPRNVADTNLEGVD
partner: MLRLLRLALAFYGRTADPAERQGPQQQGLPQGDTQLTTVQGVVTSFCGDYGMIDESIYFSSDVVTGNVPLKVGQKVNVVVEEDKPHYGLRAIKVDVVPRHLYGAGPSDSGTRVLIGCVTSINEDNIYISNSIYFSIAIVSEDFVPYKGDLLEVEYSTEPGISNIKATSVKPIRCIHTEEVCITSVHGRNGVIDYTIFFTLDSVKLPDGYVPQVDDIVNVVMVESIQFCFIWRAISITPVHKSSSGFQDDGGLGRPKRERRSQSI
B5: Ropporin-1A (Homo sapiens), Q9HAT0 (parent)
chain: MAQTDKPTCIPPELPKMLKEFAKAAIRVQPQDLIQWAADYFEALSRGETPPVRERSERVALCNRAELTPELLKILHSQVAGRLIIRAEELAQMWKVVNLPTDLFNSVMNVGRFTEEIEWLKFLALACSALGVTITKTLKIVCEVLSCDHNGGSPRIPFSTFQFLYTYIAKVDGEISASHVSRMLNYMEQEVIGPDGIITVNDFTQNPRVQLE
partner: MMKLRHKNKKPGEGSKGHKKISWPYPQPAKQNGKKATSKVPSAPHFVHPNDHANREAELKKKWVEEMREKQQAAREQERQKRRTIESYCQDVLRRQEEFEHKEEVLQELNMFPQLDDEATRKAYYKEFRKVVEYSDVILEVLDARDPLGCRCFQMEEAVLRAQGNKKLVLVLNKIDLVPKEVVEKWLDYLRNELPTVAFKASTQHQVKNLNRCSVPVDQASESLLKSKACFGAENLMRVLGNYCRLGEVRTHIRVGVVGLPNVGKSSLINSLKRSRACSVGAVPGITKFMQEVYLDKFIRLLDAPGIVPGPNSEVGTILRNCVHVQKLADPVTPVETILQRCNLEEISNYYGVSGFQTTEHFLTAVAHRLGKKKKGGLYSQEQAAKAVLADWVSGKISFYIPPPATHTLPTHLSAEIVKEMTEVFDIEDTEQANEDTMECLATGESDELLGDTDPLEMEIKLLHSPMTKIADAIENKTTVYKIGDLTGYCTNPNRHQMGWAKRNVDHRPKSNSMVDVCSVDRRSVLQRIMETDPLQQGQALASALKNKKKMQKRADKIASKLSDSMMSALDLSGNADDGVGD
B6: Thioredoxin-like protein 4B (Homo sapiens), Q9NX01 (parent)
chain: MSFLLPKLTSKKEVDQAIKSTAEKVLVLRFGRDEDPVCLQLDDILSKTSSDLSKMAAIYLVDVDQTAVYTQYFDISYIPSTVFFFNGQHMKVDYGSPDHTKFVGSFKTKQDFIDLIEVIYRGAMRGKLIVQSPIDPKNIPKYDLLYQDI
B7: Hypoxia-inducible factor 1-alpha inhibitor (Homo sapiens), Q9NWT6 (parent)
chain: MAATAAEAVASGSGEPREEAGALGPAWDESQLRSYSFPTRPIPRLSQSDPRAEELIENEEPVVLTDTNLVYPALKWDLEYLQENIGNGDFSVYSASTHKFLYYDEKKMANFQNFKPRSNREEMKFHEFVEKLQDIQQRGGEERLYLQQTLNDTVGRKIVMDFLGFNWNWINKQQGKRGWGQLTSNLLLIGMEGNVTPAHYDEQQNFFAQIKGYKRCILFPPDQFECLYPYPVHHPCDRQSQVDFDNPDYERFPNFQNVVGYETVVGPGDVLYIPMYWWHHIESLLNGGITITVNFWYKGAPTPKRIEYPLKAHQKVAIMRNIEKMLGEALGNPQEVGPLLNTMIKGRYN

Variants of B1 are the subject of one test. The note with it: with 4et_human EIF4ENIF1, Q9NRA8.
Take T297I: the “effect of a mutation on the interaction” value is “with no effect”.
In the case of S7F, the “effect of a mutation on the interaction” value was “with no effect”.

The variants in a further test derive from B2. The note with it: with rfox2_human RBFOX2, O43251.
As to M270I, the “effect of a mutation on the interaction” value is “with no effect”.
On the same count and under the same terms, then V78I, with “with no effect”.
Still for that read-out and setting: then S9Y, with “with no effect”.

Variants of B3 are the subject of another test. Conditions: with sept3_human SEPTIN3, Q9UH03.
sept3_human SEPTIN3, Q9UH03, sequence (Q9UH03 whole entry): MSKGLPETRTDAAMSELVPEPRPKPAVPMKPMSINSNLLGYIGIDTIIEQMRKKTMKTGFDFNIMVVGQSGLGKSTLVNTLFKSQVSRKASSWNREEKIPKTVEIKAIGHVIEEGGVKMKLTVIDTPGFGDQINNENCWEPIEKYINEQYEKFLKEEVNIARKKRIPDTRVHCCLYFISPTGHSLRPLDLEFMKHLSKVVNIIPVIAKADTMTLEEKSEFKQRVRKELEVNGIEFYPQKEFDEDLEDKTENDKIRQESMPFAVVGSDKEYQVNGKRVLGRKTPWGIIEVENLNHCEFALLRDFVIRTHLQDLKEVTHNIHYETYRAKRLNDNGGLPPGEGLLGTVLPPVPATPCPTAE
Take V310L: the “effect of a mutation on the interaction” value is “with no effect”.

Variants of B3 are the subject of the next test. Conditions: with wasl_human WASL.
As for V310L, the “effect of a mutation on the interaction” value is given as “with no effect”.

The variants in another test derive from B4. The note with it: with ct55_human CT55, Q8WUE5.
Consider T361A, for which the “effect of a mutation on the interaction” value is “with no effect”.
With T523I, the “effect of a mutation on the interaction” value is reported as “with no effect”.

In another test the parent is B5. Conditions: with gnl3l_human GNL3L.
Consider C62W, for which the “effect of a mutation on the interaction” value was “with no effect”.

A further test covers variants of B6. Conditions: with itf2_human TCF4, P15884.
itf2_human TCF4, P15884, sequence (P15884 whole entry): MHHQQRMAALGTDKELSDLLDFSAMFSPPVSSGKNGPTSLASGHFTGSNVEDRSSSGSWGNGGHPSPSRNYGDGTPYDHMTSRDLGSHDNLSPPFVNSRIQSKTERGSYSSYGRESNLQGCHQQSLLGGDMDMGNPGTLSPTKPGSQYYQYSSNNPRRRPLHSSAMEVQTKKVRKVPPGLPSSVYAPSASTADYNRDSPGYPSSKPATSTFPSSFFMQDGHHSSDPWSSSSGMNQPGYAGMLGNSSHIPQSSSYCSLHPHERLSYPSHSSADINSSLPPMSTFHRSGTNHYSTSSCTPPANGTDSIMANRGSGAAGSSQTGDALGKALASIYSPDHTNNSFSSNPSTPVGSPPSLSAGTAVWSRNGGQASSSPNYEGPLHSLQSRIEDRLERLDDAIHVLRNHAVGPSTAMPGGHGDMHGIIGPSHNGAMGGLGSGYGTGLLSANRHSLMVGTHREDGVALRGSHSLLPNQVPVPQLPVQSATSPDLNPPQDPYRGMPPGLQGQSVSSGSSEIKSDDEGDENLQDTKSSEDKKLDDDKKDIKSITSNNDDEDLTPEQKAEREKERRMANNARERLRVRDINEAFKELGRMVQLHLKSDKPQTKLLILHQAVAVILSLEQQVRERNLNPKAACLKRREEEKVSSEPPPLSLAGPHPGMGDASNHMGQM
On to I119M, for which the “effect of a mutation on the interaction” value was “with no effect”.

In a further test the parent is B7. Conditions: with asb9_human ASB9, Q96DX5.
asb9_human ASB9, Q96DX5, sequence (Q96DX5 whole entry): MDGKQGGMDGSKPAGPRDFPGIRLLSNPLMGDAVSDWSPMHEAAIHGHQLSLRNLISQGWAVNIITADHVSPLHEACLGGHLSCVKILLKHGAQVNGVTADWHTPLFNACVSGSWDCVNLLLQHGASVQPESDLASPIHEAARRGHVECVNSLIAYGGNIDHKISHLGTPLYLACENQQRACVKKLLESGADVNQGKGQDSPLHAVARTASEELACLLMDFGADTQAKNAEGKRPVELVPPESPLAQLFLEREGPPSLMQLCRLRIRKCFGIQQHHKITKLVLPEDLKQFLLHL
Consider P41A, for which the “effect of a mutation on the interaction” value is given as “with no effect”.
